For assay [1], the target named is M protein M3.22 (Streptococcus pyogenes). In words: radioligand binding; 250 µl of streptococci (10^8 bacteria per ml in PBS with 0.05% Tween 20), before and after hyaluronidase treatment, incubated 45 min with 30 ng (100,000 cpm) of 125I-labelled collagen IV; washed, radioactivity of the pellet counted; cut-off 20% bound ligand.
For assay [2], the target named is M protein stG120.1 (Streptococcus dysgalactiae subsp. equisimilis). The assay is described as above.
For assay [3], the target named is human collagen IV (immobilized, SPR) (human) (UniProt P02462). In words: SPR; human collagen IV immobilised (400 RU); recombinant M proteins injected for 2 min at 60 µl/min; apparent constants, Langmuir model for 1:1 interactions (BiaEvaluation 3.0).

Turning to “125I-labelled collagen IV (from human placenta, Sigma-Aldrich) (from UniProt P02462 173-1669; P08572 184-1712) (complex)”, in assay [1], the percent of the added collagen IV bound (% of the added collagen IV) is more than 20. The percent bound ligand (% bound ligand) in assay [2] is 56.

Regarding “recombinant M protein M31.5 (natural protein)”, the Kd in assay [3] was determined as 0.6 nM.

On to “recombinant M protein M55 (from UniProt Q54840 1-550) (natural protein)”, for which the Kd in assay [3] stood at 5 nM.

Regarding “recombinant M protein stG2078 (natural protein)”, the SPR response in assay [3] is less than 4 RU.

The record behind these values is article PMC3256231.
